The record followed here is patent US20200317768A1 (published 2020).

Usually Kd stands for the equilibrium constant for the complex coming apart.

Test [1] has as its target T1, human FcγRIIb extracellular domain, C-terminal His-tag (human, UniProt P31994 43-217).
T1 construct: also called humanFcgRIIb; not shown: His-tag added to C-terminus
T1 sequence: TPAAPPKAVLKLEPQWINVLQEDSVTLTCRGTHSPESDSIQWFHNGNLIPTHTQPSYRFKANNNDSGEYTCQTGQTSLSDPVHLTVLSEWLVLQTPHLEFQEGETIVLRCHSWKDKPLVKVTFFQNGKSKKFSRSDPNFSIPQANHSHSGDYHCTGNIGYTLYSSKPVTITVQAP
As to the kind of experiment: SPR (BIACORE); KD of parent SG1 / KD of variant.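 Further: relative to parent M103205H795-SG1 carrying the SG1 human heavy chain constant region.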 As for the experimental part:
(§1) The kinetic analysis of interactions between these antibodies and FcγR was carried out using BIACORE® T200 or BIACORE® 4000 (GE Healthcare). HBS-EP+ (GE Healthcare) was used as the running buffer, and the measurement temperature was set to 25° C. A chip produced by immobilizing Protein A. Protein A/G or mouse anti-human IgG kappa light chain (BD Biosciences) onto a Series S Sensor Chip CM4 or CM5 (GE Healthcare) by the amine-coupling method was used. […] After the measurement, the antibody captured on the chip was washed off by allowing reaction with 10 mM glycine-HCl, pH1.5 and 25 mM NaOH so that the chip was regenerated and used repeatedly. The sensorgrams obtained as measurement results were analyzed by the 1:1 Langmuir binding model using the BIACORE® Evaluation Software to calculate the binding rate constant ka (L/mol/s) and dissociation rate constant kd (l/s), and the dissociation constant KD (mol/L) was calculated from these values. […] Regarding such interactions, KD values were calculated using the following 1:1 binding model described in BIACORE® T100 Software Handbook BR1006-48 Edition AE.

Test [2] concerns the target T2, human FcγRIIaR extracellular domain, C-terminal His-tag (human, UniProt P12318 34-217).
T2 construct: also called human FcγRIIa (type R); FcgRIIaR; not shown: His-tag added to C-terminus
T2 chain: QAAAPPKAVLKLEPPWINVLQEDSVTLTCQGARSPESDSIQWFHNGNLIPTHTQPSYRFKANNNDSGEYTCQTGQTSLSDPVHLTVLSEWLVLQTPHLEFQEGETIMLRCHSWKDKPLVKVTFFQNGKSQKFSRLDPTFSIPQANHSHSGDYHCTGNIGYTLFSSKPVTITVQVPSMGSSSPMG
Kind of test: SPR (BIACORE); KD of parent SG1 / KD of variant.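 Further: relative to parent M103205H795-SG1 carrying the SG1 human heavy chain constant region.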 Here is the method:
as §1
On the technique in general: In SPR one partner is held on a chip, and binding of the other changes the refractive index at the surface.

Test [3] deals with T3, cynomolgus monkey FcγRIIIaS extracellular domain, C-terminal His-tag (cynomolgus monkey, UniProt A3RFZ7 21-206 (rhesus entry)).
T3 construct: also called cyno FcγRIIIaS; cynoFcγRIIIaS; not shown: His-tag added to C-terminus
T3 sequence (A3RFZ7 21-206): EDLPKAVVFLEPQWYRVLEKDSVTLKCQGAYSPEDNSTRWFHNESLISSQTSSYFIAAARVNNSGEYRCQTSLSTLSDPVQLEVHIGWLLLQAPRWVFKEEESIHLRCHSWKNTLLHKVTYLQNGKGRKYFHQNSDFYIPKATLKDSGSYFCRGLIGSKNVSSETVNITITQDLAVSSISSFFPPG
As to the kind of experiment: SPR (BIACORE); KD of parent SG1 / KD of variant.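 Further: relative to parent M103205H795-SG1 carrying the SG1 human heavy chain constant region.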 Here is the method: as §1

Test [4] addresses T4, cynomolgus monkey FcγRIIb extracellular domain, C-terminal His-tag (cynomolgus monkey).
T4 construct: also called cyno FcγRIIb; cynoFcγRIIb; not shown: His-tag added to C-terminus
T4 chain: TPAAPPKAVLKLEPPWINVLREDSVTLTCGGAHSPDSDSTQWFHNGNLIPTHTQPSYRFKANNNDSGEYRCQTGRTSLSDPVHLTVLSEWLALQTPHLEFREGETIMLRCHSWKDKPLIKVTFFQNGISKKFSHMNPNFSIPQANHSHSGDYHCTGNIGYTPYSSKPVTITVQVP
Kind of test: SPR (BIACORE); KD of parent SG1 / KD of variant.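 Further: relative to parent M103205H795-SG1 carrying the SG1 human heavy chain constant region.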 As for the experimental part: as §1

In test [5] the target is T5, cynomolgus monkey FcγRIIa2 extracellular domain, C-terminal His-tag (cynomolgus monkey).
T5 construct: also called cyno FcγRIIa2; cynoFcgRIIa2; not shown: His-tag added to C-terminus
T5 chain: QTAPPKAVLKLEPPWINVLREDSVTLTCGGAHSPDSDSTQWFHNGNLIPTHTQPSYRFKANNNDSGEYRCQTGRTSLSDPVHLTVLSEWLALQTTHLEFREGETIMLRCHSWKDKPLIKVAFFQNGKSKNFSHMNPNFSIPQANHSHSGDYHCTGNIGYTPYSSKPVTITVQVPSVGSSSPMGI
Kind of test: SPR (BIACORE); KD of parent SG1 / KD of variant. Here is the method:
as §1

Test [6] deals with T6, cynomolgus monkey FcγRIIa1 extracellular domain, C-terminal His-tag (cynomolgus monkey).
T6 construct: also called cyno FcγRIIa1; cynoFcgRIIa1; not shown: His-tag added to C-terminus
T6 chain: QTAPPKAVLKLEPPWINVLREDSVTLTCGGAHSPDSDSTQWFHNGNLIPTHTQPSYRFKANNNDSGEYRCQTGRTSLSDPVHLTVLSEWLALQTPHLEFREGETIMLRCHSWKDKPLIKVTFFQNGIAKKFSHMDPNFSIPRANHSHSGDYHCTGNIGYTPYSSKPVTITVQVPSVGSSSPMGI
As to the kind of experiment: SPR (BIACORE); KD of parent SG1 / KD of variant. As for the experimental part:
as §1

Test [7] has as its target T7, human FcγRIIIaV extracellular domain, C-terminal His-tag (human, UniProt P08637 17-208).
T7 construct: also called FcgRIIIaV; not shown: His-tag added to C-terminus
As to the kind of experiment: SPR (BIACORE); KD of parent SG1 / KD of variant. As for the experimental part:
as §1

Test [8] deals with T8, cynomolgus monkey FcγRIIa3 extracellular domain, C-terminal His-tag (cynomolgus monkey).
T8 construct: also called cyno FcγRIIa3; cynoFcgRIIa3; not shown: His-tag added to C-terminus
T8 chain: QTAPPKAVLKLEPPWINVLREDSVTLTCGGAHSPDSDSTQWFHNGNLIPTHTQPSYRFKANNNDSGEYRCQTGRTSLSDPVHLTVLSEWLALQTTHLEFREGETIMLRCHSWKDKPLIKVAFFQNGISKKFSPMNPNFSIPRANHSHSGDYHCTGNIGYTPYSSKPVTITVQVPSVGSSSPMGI
Kind of test: SPR (BIACORE); KD of parent SG1 / KD of variant. Here is the method:
as §1

Test [9] addresses T9, human FcγRIIaH extracellular domain, C-terminal His-tag (human, UniProt P12318 34-217).
T9 construct: also called human FcγRIIa (type H); FcgRIIaH; not shown: His-tag added to C-terminus
T9 sequence: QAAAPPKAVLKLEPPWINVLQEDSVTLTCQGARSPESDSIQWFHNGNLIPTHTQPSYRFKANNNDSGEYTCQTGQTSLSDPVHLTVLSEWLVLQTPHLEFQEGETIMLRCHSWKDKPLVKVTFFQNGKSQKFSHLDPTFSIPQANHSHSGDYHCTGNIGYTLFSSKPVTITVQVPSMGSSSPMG
Kind of test: SPR (BIACORE); KD of parent SG1 / KD of variant. As for the experimental part: as §1

In test [10] the target is T1, human FcγRIIb extracellular domain, …. Kind of test: SPR (BIACORE), antibody captured, FcγR analyte. Here is the method: as §1
For test [11], the target named is T2, human FcγRIIaR extracellular domain, …. Kind of test: SPR (BIACORE), antibody captured, FcγR analyte. As for the experimental part: as §1
Test [12] addresses T3, cynomolgus monkey FcγRIIIaS …. Kind of test: SPR (BIACORE), antibody captured, FcγR analyte. As for the experimental part:
as §1

The target in test [13] is T4, cynomolgus monkey FcγRIIb extracellular …. As to the kind of experiment: SPR (BIACORE), antibody captured, FcγR analyte. Here is the method: as §1
Test [14] concerns the target T5, cynomolgus monkey FcγRIIa2 …. Kind of test: SPR (BIACORE), antibody captured, FcγR analyte. Here is the method:
as §1

Test [15] has as its target T6, cynomolgus monkey FcγRIIa1 …. As to the kind of experiment: SPR (BIACORE), antibody captured, FcγR analyte. As for the experimental part:
as §1

Test [16] addresses T7, human FcγRIIIaV extracellular domain, …. Kind of test: SPR (BIACORE), antibody captured, FcγR analyte. As for the experimental part: as §1
Test [17] deals with T8, cynomolgus monkey FcγRIIa3 …. As to the kind of experiment: SPR (BIACORE), antibody captured, FcγR analyte. As for the experimental part: as §1
Test [18] has as its target T9, human FcγRIIaH extracellular domain, …. Kind of test: SPR (BIACORE), antibody captured, FcγR analyte. As for the experimental part:
as §1

T7 sequence (P08637 17-208 F176V): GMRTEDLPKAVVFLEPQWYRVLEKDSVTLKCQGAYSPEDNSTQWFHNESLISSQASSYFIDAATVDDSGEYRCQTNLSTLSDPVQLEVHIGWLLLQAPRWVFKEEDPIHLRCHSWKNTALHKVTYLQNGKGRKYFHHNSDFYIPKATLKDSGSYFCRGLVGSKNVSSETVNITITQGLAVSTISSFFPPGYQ

B1: M103205H795-SG1033 / M103202L889-SK1 (antibody, human IgG1, kappa)
heavy: QVTLKESGPVLVKPTETLTLTCTVSGIDLSHDDISWVRQAPGKGLEWVGIISYAGSTYYASWAKGRLTISKDTSKNQVVLTMTNMDPVDTATYYCARGVPAYSHGGDLWGQGTLVTVSSASTKGPSVFPLAPSSKSTSGGTAALGCLVKDYFPEPVTVSWNSGALTSGVHTFPAVLQSSGLYSLSSVVTVPSSSLGTQTYICNVNHKPSNTKVDKKVEPKSCDKTHTCPPCPAPELLNGPSVFLFPPKPKDTLMISRTPEVTCVVVDVSDEDPEVKFNWYVDGVEVHNAKTKPREEQYNSTYRVVSVLTVLHQDWLNGKEYKCKVSNKALPKPIEKTISKAKGQPREPQVYTLPPSREEMTKNQVSLTCLVKGFYPSDIAVEWESNGQPENNYKTTPPVLDSDGSFFLYSKLTVDKSRWQQGNVFSCSVMHEALHAHYTQKSLSLSP
light: DIVMTQSPATLSLSPGERATLSCTSSQSVYHANWLSWFQQKPGQPPKLLIYWASTLAYGVPSRFSGSGSGTDFTLTISSLQPEDAATYYCAGGYGGGRYAFGQGTKVEIKRTVAAPSVFIFPPSDEQLKSGTASVVCLLNNFYPREAKVQWKVDNALQSGNSQESVTEQDSKDSTYSLSSTLTLSKADYEKHKVYACEVTHQGLSSPVTKSFNRGEC
notes: CH with G236N/H268D/A330K/N434A against SG1 (EU numbering); also called MS1032LO06-SG1033
B1: the “KD fold (SG1 = 1)” value in test [1] was found to be 3.9 fold; in test [2] it was 1 fold; in test [3], 0.06 fold; in [4] it was 3.9 fold; in [5], 3 fold; in [6] it was 2.6 fold. Moreover, the “KD fold (SG1 = 1)” value stood at 0.05 fold in test [7], 2.9 fold in [8] and 0.7 fold in [9]. For the same molecule, the Kd in test [10] came to 1.2 µM; in [11], 1 µM; in [12], 4.4 µM; in test [13], 0.5 µM; in [14], 1.5 µM; in test [15], 1.8 µM. The Kd worked out at 12 µM in test [16], 3 µM in [17] and 1.2 µM in [18].

B2: M103205H795-SG1034 / M103202L889-SK1 (antibody, human IgG1, kappa)
heavy: QVTLKESGPVLVKPTETLTLTCTVSGIDLSHDDISWVRQAPGKGLEWVGIISYAGSTYYASWAKGRLTISKDTSKNQVVLTMTNMDPVDTATYYCARGVPAYSHGGDLWGQGTLVTVSSASTKGPSVFPLAPSSKSTSGGTAALGCLVKDYFPEPVTVSWNSGALTSGVHTFPAVLQSSGLYSLSSVVTVPSSSLGTQTYICNVNHKPSNTKVDKKVEPKSCDKTHTCPPCPAPELLTGPSVFLFPPKPKDTLMISRTPEVTCVVVDVSDEDPEVKFNWYVDGVEVHNAKTKPREEQYNSTYRVVSVLTVLHRDWLNGKEYKCKVSNKALPKPIEKTISKAKGQPREPQVYTLPPSREEMTKNQVSLTCLVKGFYPSDIAVEWESNGQPENNYKTTPPVLDSDGSFFLYSKLTVKKSRWQQGNVFSCSVMHEALHAHYTQKSLSLSP
light: DIVMTQSPATLSLSPGERATLSCTSSQSVYHANWLSWFQQKPGQPPKLLIYWASTLAYGVPSRFSGSGSGTDFTLTISSLQPEDAATYYCAGGYGGGRYAFGQGTKVEIKRTVAAPSVFIFPPSDEQLKSGTASVVCLLNNFYPREAKVQWKVDNALQSGNSQESVTEQDSKDSTYSLSSTLTLSKADYEKHKVYACEVTHQGLSSPVTKSFNRGEC
notes: CH with G236T/H268D/Q311R/A330K/D413K/N434A against SG1 (EU numbering); also called MS1032LO06-SG1034
As for B2, the “KD fold (SG1 = 1)” value in test [1] amounted to 1.8 fold; in test [2], 4.1 fold; in test [3], 0.15 fold; in test [4], 2.2 fold; in test [5] it was 1.7 fold; in [6] it was 1.5 fold. Further, the “KD fold (SG1 = 1)” value was 0.09 fold in test [7], 2 fold in [8] and 2.9 fold in test [9]. The Kd in test [10] stood at 2.6 µM; in [11] it was 0.25 µM; in test [12], 2.2 µM; in test [13], 0.88 µM; in [14], 2.7 µM; in test [15] it was 8.1 µM. Further, the equilibrium dissociation constant (Kd) amounted to 7.1 µM in test [16], 4.2 µM in test [17] and 0.81 µM in [18].
